Reference: US20110312897

Columns and labels:
[1] = target: C-terminally 6xHIS tagged, full-length recombinant histone H3
[2] = target: T1, H3 15-31 peptide, K18 acetyl
T1 chain: APRKQLATKAARKSAPA

[3] = target: T2, H3 15-31 peptide, K18ac+K23ac
T2 chain: APRKQLATKAARKSAPA

[4] = target: T3, H3 15-31 peptide, K23 acetyl
T3 chain: APRKQLATKAARKSAPA

H3 15-31 peptide, K27me2 = target: T4, H3 15-31 peptide, K27me2
T4 chain: APRKQLATKAARKSAPA

[5] = target: rH3 pan-acetylated with acetic anhydride

B1: recombinant mouse Cathepsin L (R&D Systems, # 1515-CY-010) (protein)
chain: TPKFDQTFSAEWHQWKSTHRRLYGTNEEEWRRAIWEKNMRMIQLHNGEYSNGQHGFSMEMNAFGDMTNEEFRQVVNGYRHQKHKKGRLFQEPLMLKIPKSVDWREKGCVTPVKNQGQCGSCWAFSASGCLEGQMFLKTGKLISLSEQNLVDCSHAQGNQGCNGGLMDFAFQYIKENGGLDSEESYPYEAKDGSCKYRAEFAVANDTGFVDIPQQEKALMKAVATVGPISVAMDASHPSLQFYSSGIYYEPNCSSKNLDHGVLLVGYGYEGTDSNKNKYWLVKNSWGSEWGMEGYIKIAKDRDNHCGLATAASYPVVN
H3 cleavage assay (immunoblot with HIS-HRP and H3.cs1 antibodies; mass spectrometry) [1]: recombinant mouse Cathepsin L was able to cleave recombinant histone H3 at both pH 5.5 and pH 7.4
H3 cleavage assay with pre-activated enzyme, immunoblot with HIS and H3.cs1 antibodies [1]: pre-activated Cathepsin L cleaves rH3-HIS robustly and produces a pattern that is similar to that observed in vivo
ELISA with the H3cs.1 antibody of the cleavage product, against the unmodified H3 15-31 peptide [2]: acetylation at K18 (blue) also increases this activity
ELISA with the H3cs.1 antibody of the cleavage product [3]: the K23ac peptide shows very little cleavage activity at H3cs.1, both alone (green) and in combination with K18ac (black)
ELISA with the H3cs.1 antibody of the cleavage product [4]: the K23ac peptide shows very little cleavage activity at H3cs.1, both alone (green) and in combination with K18ac (black)
ELISA with the H3cs.1 antibody of the cleavage product, against the unmodified H3 15-31 peptide (H3 15-31 peptide, K27me2): K27me2 (magenta) strongly increases the ability of Cathepsin L to cleave at H3cs.1 as compared to the matched unmodified H3 15-31 peptide
H3 cleavage assay, immunoblot (substrate 3 against unmodified substrate 1) [5]: the acetylation of lysine residues greatly reduced cleavage of H3 by rCathepsin L at both pH 7.5 and 5.5
H3 cleavage assay, immunoblot (substrate 2 against unmodified substrate 1) (rH3-HIS+K27me2): K27me2 increases H3 cleavage
